Reference: US20230183713A1, “SITE-SPECIFIC RECOMBINASES FOR EFFICIENT AND SPECIFIC GENOME EDITING” (TECHNISCHE UNIVERSITÄt DRESDEN, published 2023)

Tests used:
[1] = target: T1, Cre recombinase monomer with W315I mutation
T1 chain: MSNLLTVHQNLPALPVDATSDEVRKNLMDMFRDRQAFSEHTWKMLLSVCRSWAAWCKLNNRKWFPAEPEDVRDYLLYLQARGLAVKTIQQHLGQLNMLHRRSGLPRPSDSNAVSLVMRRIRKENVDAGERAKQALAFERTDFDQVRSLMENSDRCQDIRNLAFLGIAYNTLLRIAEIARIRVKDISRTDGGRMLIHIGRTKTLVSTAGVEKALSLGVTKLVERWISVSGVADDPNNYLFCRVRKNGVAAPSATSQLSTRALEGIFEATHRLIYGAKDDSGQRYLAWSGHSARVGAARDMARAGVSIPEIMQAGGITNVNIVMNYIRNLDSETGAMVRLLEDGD

[2] = target: T2, Cre recombinase monomer with W315N mutation
T2 chain: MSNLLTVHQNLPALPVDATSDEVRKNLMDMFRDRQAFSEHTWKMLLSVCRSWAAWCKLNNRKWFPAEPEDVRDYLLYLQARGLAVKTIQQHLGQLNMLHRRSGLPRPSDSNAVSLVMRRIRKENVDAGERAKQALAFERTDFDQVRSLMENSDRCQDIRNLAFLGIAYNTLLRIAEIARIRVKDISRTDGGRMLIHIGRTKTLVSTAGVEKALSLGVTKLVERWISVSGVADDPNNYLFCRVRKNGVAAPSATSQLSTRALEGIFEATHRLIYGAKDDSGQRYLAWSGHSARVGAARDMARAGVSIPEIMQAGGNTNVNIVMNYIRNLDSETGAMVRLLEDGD

[3] = target: T3, Cre recombinase monomer with W315Q mutation
T3 chain: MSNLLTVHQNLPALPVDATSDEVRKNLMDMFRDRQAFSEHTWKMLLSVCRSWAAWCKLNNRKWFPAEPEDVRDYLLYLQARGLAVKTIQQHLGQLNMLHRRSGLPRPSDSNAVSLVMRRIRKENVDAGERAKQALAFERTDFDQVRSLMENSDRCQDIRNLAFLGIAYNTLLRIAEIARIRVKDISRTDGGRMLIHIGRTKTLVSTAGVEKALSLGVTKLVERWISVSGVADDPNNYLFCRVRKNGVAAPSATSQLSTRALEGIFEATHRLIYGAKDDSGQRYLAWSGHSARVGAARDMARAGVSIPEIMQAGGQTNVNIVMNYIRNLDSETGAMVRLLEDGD

[4] = target: T4, Cre recombinase monomer with Y324C mutation
T4 chain: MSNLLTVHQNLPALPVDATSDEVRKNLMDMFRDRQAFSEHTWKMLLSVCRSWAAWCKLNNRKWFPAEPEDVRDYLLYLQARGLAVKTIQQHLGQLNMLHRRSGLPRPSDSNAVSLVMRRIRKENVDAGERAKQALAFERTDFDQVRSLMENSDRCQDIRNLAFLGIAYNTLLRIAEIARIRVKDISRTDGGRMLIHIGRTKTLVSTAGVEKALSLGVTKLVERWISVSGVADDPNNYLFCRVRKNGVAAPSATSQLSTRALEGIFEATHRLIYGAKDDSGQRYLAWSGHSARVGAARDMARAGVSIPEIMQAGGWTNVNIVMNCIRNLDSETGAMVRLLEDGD

[5] = target: T5, Cre recombinase monomer with Y324F mutation
T5 chain: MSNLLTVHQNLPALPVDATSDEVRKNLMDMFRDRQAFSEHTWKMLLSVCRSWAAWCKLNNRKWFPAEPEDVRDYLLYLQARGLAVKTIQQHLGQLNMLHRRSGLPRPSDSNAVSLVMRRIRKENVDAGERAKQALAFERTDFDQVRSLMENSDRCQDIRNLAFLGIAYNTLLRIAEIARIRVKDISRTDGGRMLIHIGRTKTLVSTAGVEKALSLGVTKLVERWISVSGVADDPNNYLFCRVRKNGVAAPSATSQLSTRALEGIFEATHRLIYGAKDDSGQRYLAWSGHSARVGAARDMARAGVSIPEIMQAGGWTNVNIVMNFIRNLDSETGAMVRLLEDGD

[6] = target: T6, Cre recombinase monomer with Y324L mutation
T6 chain: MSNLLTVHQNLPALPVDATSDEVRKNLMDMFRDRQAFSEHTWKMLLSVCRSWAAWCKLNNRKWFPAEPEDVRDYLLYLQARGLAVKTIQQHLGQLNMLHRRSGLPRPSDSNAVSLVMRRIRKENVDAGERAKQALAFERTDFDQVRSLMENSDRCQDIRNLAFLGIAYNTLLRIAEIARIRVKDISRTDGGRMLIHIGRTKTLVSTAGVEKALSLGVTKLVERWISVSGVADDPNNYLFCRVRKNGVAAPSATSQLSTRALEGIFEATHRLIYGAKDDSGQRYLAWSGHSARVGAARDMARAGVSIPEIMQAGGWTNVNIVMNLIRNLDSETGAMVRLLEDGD

[7] = target: T7, Cre recombinase monomer with Y324S mutation
T7 chain: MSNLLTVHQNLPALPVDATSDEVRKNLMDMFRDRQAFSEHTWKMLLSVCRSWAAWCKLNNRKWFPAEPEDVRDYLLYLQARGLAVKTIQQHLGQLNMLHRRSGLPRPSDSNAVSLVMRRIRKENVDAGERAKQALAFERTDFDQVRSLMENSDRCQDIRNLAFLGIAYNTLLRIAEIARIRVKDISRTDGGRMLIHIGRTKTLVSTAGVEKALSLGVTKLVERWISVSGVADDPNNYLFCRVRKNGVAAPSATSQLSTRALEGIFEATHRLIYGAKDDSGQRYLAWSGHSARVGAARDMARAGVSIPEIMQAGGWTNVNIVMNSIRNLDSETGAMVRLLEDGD

[8] = target: T8, Cre recombinase monomer with Y324W mutation
T8 chain: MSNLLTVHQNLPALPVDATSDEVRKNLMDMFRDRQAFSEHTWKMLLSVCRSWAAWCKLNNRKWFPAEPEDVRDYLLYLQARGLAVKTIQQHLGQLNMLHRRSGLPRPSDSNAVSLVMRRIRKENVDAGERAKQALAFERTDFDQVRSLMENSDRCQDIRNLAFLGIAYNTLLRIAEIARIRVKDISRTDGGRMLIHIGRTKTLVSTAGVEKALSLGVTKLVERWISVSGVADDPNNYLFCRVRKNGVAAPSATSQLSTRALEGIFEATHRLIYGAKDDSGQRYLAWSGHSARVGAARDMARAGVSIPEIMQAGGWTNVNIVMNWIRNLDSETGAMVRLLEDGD

B1: Cre recombinase monomer with Q311R mutation (protein)
chain: MSNLLTVHQNLPALPVDATSDEVRKNLMDMFRDRQAFSEHTWKMLLSVCRSWAAWCKLNNRKWFPAEPEDVRDYLLYLQARGLAVKTIQQHLGQLNMLHRRSGLPRPSDSNAVSLVMRRIRKENVDAGERAKQALAFERTDFDQVRSLMENSDRCQDIRNLAFLGIAYNTLLRIAEIARIRVKDISRTDGGRMLIHIGRTKTLVSTAGVEKALSLGVTKLVERWISVSGVADDPNNYLFCRVRKNGVAAPSATSQLSTRALEGIFEATHRLIYGAKDDSGQRYLAWSGHSARVGAARDMARAGVSIPEIMRAGGWTNVNIVMNYIRNLDSETGAMVRLLEDGD
[1]
  Median dimer activity (recombination on loxP): 92%
[2]
  Median dimer activity (recombination on loxP): 64%
[3]
  Median dimer activity (recombination on loxP): 49%
[4]
  Median dimer activity (recombination on loxP): 93%
[5]
  Median dimer activity (recombination on loxP): 95%
[6]
  Median dimer activity (recombination on loxP): 95%
[7]
  Median dimer activity (recombination on loxP): 81%
[8]
  Median dimer activity (recombination on loxP): 95%
